Laboratory results from PMC11928522.

Tests used:
LPA66-BFP = biological target: T1, LPA66-BFP (Arabidopsis thaliana, UniProt Q9FI80 35-515); assay: EMSA after sedimentation
T1 sequence: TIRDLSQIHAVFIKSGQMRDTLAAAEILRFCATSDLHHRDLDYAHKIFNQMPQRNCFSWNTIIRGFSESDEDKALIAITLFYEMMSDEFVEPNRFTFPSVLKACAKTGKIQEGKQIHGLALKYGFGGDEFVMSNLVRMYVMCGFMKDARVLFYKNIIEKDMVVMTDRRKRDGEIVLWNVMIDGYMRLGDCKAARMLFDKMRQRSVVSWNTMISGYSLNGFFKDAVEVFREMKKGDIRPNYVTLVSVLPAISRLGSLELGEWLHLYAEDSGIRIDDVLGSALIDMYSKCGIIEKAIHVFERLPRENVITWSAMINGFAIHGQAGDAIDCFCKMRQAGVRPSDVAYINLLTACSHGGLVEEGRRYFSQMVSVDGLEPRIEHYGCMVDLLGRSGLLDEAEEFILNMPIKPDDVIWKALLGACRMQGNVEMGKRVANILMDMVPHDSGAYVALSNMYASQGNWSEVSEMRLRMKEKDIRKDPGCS

GFP-MORF8 (condensates) = biological target: T2, GFP-MORF8 (condensates) (Arabidopsis thaliana, UniProt Q9LKA5 1-395); assay: condensate partitioning
T2 sequence: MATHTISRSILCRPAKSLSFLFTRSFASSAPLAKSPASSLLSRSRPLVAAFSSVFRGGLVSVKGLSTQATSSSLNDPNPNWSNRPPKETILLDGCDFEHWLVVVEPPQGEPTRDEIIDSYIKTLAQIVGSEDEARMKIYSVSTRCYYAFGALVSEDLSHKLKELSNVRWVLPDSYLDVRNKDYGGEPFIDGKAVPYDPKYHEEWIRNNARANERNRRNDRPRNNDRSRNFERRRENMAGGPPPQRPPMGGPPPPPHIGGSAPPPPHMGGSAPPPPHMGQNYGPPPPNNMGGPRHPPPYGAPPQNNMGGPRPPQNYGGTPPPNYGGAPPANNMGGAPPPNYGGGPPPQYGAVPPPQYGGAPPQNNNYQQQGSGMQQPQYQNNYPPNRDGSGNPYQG

[1] = biological target: T3, LPA66-BFP;MBP-GFP-MORF8 (diffuse) (Arabidopsis thaliana;Arabidopsis …, UniProt Q9FI80;Q9LKA5 35-515;1-395, |); assay: EMSA
T3 sequence 1: T1 sequence
T3 sequence 2: T2 sequence

Measured: binding result

UAGCUGUACCUACCGUUUCUUUU (ssRNA) [psbF RNA probe]
binds: LPA66-BFP | GFP-MORF8 (condensates) | [1]
